Test results from US20150273076A1, “SP1 POLYPEPTIDES, MODIFIED SP1 POLYPEPTIDES AND USES THEREOF” (Fulcrum SP Ltd., priority 2006, published 2015).

System: proteinase K or alkalase
Assay: Protease resistance by SDS PAGE
Type: physicochemical
Conditions: V8 protease, similar with trypsin, subtilysine
Protocol: Protease Susceptibility Examination of SP1—SP1 (10 μg) prepared either in V8 protease digestion buffer (125 mM Tris-HCl, pH 6.8, 10% glycerol, 0.5% SDS) or standard buffer (20 mM Tris-HCl, pH 7.5, 1 mM EDTA, 50 mM NaCl), was boiled for 2 min or not boiled prior the addition of protease (Staphylococcus aureus V8 protease, trypsin, proteinase K, Sigma Chemicals Inc., Israel). Proteases were added to a final concentration of 50 μg/ml (SP1: protease equal to 1:20, w/w). The digestion was performed at 37° C. for 1 hr. The samples were then prepared in SDS sample buffer, and boiled or not before being subjected to 17% tricine-SDS-PAGE.
SP1 is vulnerable to V8 protease or subtilysine (alcalase, Novo Industries) digestion when disassociated to its monomeric form (boiled in 0.5% SDS, or dissolved inclusion bodies). […] When the oligomer-protease mixture was further boiled in SDS sample buffer, only the SP1 monomer was observed and no peptide fragment was detected on the gel. When the same mixture was subjected to SDS-PAGE analysis without boiling, an intact complex was observed. […] Thus, whereas properly folded SP1 protein is protease resistance, unfolded protein, susceptible to protease, can be removed by protease and heat treatment (FIG. 5).

## wild type: stress related SP1 protein from aspen (Populus tremula), recombinant, SEQ ID NO:1
  digestion of the intact oligomer by protease: unable to digest the intact oligomer
